Blank lines part the entries; values can stand above or below the molecule they belong to.
Columns and labels:
[1] = target: Strep-tagged MlaDΔTM (E. coli K-12); test: SDS-PAGE of the purified protein
[2] = target: the molecule itself; test: cryo-EM structure

stoichiometry N [1]: 6
Molecule: Strep-tagged MlaDΔTM (domain or fragment)

B1: MlaF (natural protein)
chain: MEQSVANLVDMRDVSFTRGNRCIFDNISLTVPRGKITAIMGPSGIGKTTLLRLIGGQIAPDHGEILFDGENIPAMSRSRLYTVRKRMSMLFQSGALFTDMNVFDNVAYPLREHTQLPAPLLHSTVMMKLEAVGLRGAAKLMPSELSGGMARRAALARAIALEPDLIMFDEPFVGQDPITMGVLVKLISELNSALGVTCVVVSHDVPEVLSIADHAWILADKKIVAHGSAQALQANPDPRVRQFLDGIADGPVPFRYPAGDYHADLLPGS
stoichiometry N [2]: 2

B2: MlaE (natural protein)
chain: MLLNALASLGHKGIKTLRTFGRAGLMLFNALVGKPEFRKHAPLLVRQLYNVGVLSMLIIVVSGVFIGMVLGLQGYLVLTTYSAETSLGMLVALSLLRELGPVVAALLFAGRAGSALTAEIGLMRATEQLSSMEMMAVDPLRRVISPRFWAGVISLPLLTVIFVAVGIWGGSLVGVSWKGIDSGFFWSAMQNAVDWRMDLVNCLIKSVVFAITVTWISLFNGYDAIPTSAGISRATTRTVVHSSLAVLGLDFVLTALMFGN
stoichiometry N [2]: 2

From publication doi:10.1101/2020.06.04.133611 (bioRxiv, 2020)
